{"source": "patent US20130344070A1", "about": "(SORRENTO THERAPEUTICS, published 2013)", "key": {"[1]": {"target": "T1, human CCR2 (CC-Chemokine Receptor 2) (human, UniProt P41597 1-374)", "T1 construct": "whole, on cells; also called huCCR2; CHO-huCCR2", "T1 sequence (P41597 whole entry)": "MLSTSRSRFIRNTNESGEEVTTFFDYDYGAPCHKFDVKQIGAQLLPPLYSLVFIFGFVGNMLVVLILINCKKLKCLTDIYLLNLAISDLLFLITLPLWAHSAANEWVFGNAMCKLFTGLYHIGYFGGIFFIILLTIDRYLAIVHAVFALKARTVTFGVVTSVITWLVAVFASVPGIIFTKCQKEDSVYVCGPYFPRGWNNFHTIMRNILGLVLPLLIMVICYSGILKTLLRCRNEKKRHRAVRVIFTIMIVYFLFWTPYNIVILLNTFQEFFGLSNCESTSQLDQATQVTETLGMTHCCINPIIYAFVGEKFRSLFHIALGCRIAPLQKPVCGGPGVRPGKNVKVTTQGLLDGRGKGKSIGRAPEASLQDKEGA", "assay": "flow cytometry on CHO-huCCR2 cells, PE anti-human IgG", "protocol": "The data in FIG. 1 illustrates in vitro data for cellular binding EC₅₀ measurements. […] In this example, CHO-CCR2 cells were lifted from culture flasks using non-enzymatic Cell Dissociation Buffer—PBS based (Life Technologies #13151-014). Cells were resuspended in FACS Buffer (2% Fetal Bovine Serum in PBS) at 1×10⁶ cells/ml and 100 μl (1×10⁵ cells) were aliquoted into the wells of a 96-well plate. Plated cells were spun down and the supernatant discarded. Cells were resuspended in 50 μl FACS Buffer containing the indicated concentrations of CCR2 D1 IgG in triplicate (FIG. 1). Plates were incubated for 1 hr at 4° C., then washed 1× with FACS Buffer. Cells were resuspended in 50 μl goat anti-human IgG (γ-chain specific)-PE conjugated secondary antibody (Southern Biotech #2040-09) diluted 1:500 in FACS Buffer. Cells were further incubated for 30 min at 4° C. and then washed 1× with FACS Buffer. The cells were resuspended in a final volume of 25 μl FACS Buffer and analyzed using the Intellicyt Flow Cytometer. Median fluorescence in the FL-2H channel was determined using FlowJo software and EC₅₀ value was determined by plotting the data in GraphPad Prism and analyzing using a variable slope non-linear regression."}, "[2]": {"target": "T1, human CCR2 (CC-Chemokine Receptor 2)", "assay": "cell-based or functional assay"}, "[3]": {"target": "T1, human CCR2 (CC-Chemokine Receptor 2)", "assay": "cell-based or functional assay", "remark": "listed apart in the source"}, "[4]": {"target": "T1, human CCR2 (CC-Chemokine Receptor 2)", "assay": "cell-based or functional assay", "remark": "listed apart in the source"}}}
{"binder": "54A9 (antibody, V domains shown, tested as IgG) VH: VQLVESGAEVKKPGASVKVSCKASGYTFSSHYMHWVRQAPGQGLEWMGIINPSGGSTIYAQKFQGRVTINADESTSTAYMELSSLGSDDTAVYYCARAAGGAVAGHGARFDYWGQGTLVTVSS VL: LPVLTQPASVSGSPGQSITISCTGTSSDVGGYNYVSWYQQHPGKAPKLMIYDVSNRPSGVSNRFSGSKSGNTASLTISGLQAEDEADYYCSSYRRSSTLVFGGGTKLTVL", "values": [{"measurement": "EC50", "setting": "[1]", "value": 0.53, "unit": "nM"}]}
{"binder": "43D12 (antibody, V domains shown, tested as IgG; 27/28 '43D12'; the text calls the same pair '43G12'; also called 43G12) VH: EVQLVESGGGLVQPGGSLRLSCVASGFTFSDYWMSWVRQAPGKGLEWVANIKKDGSVNYYVDSVKGRFTISRDNAKNSLYLQMNSLRAEDTAVYYCTRFDYWGQGTLVTVSS VL: QAGLTQPPSVSKGLRQTATLTCTGNSNNVGNQGAAWLQQHQGHPPKLLFYRNNNRASGISERLSASRSGNTASLTITGLQPEDEADYYCLTWDSSLSVVVFGGGTKLTVL", "values": [{"measurement": "EC50", "setting": "[1]", "value": 1.8, "unit": "nM"}]}
{"binder": "42G7 (antibody, V domains shown, tested as IgG) VH: QVQLVQSGAEVKKPGASVKVSCKASGYTFSSYYMHWVRQAPGQGLEWMGIINPSGGNTSYAQKFQGRVTMTRDTSTSTVYMELSSLRSEDTAVYYCARGGYQLPHGRARAFDMWGQGTMVTVSS VL: AIRMTQSPLSLPVTLGQPASISCTSSQSLVYRDGTTYLNWFQQRPGQSPRRLIYKVSNRDSGVPDRFTGSGSGTTFTLTISRVEAEDVGIYYCMQGTHWPLTFGQGTKVEI", "values": [{"measurement": "EC50", "setting": "[1]", "value": 15, "unit": "nM"}]}
{"binder": "D1-4/LO (antibody, V domains shown, tested as IgG. '/LO' not explained) VH: QVQLVQSGAEVKKPGASVKVSCKASGYTFTGYYMHWVRQAPGQGLEWMGIINPSGGSTSYAQKFQGRVTMTRDTSTSTVYMELSSLRSEDTAVYYCATGGFGYWGEGTLVTVSS VL: LPVLTQPPSVSKGLRQTATLTCTGNSNNVGNQGAAWLQQHQGQPPKLLSYRNHNRPSGVSERFSPSRSGDTSSLTITGLQPEDEADYYCLAWDSSLRAFVFGTGTKLTVL", "values": [{"measurement": "EC50", "setting": "[1]", "value": 1.6, "unit": "nM"}]}
{"binder": "1B11 (antibody, V domains shown, tested as IgG) VH: QVQLVESGGGVVQPGRSLRLSCAASGFTFSSYAMHWVRQAPGKGLEWVAVISYDGSNKYYADSVKGRFTISRDNSKNTLYLQMNSLKAEDTAVYYCATAAAGPFDYWGQGTTVTVSS VL: LPVLTQPPSVSKGLRQTATLTCTGNSNNVGNQGAAWLQQHQGQPPKLLSYRNHNRPSGVSERFSPSRSGDTSSLTITGLQPEDEADYYCLAWDSSLRAFVFGTGTKLTVL", "values": [{"measurement": "EC50", "setting": "[1]", "value": 2.3, "unit": "nM"}]}
{"binder": "1B2 (antibody, human IgG1, V domains shown) VH: EVQLVESGAEVKKPGASVKVSCKASGYTFTGYYMNWVRQAPGQGLEWMGWINPNSGGTKYAQKFQGRVTMTSDTSINTAYMELSRLRYDDTAVYYCATGGFQHWGQGTLVTVSS VL: LPVLTQPPSVSKGLRQTATLTCTGNSNNVGNQGAAWLQQHQGQPPKLLSYRNHNRPSGVSERFSPSRSGDTSSLTITGLQPEDEADYYCLAWDSSLRAFVFGTGTKLTVL", "values": [{"measurement": "IC50 on MCP-1 (3 nM) induced THP-1 cell migration", "setting": "[2]", "value": 0.087, "unit": "nM"}, {"measurement": "IC50 on MCP-5 (3 nM) induced THP-1 cell migration", "setting": "[2]", "value": 0.197, "unit": "nM"}, {"measurement": "IC50 in calcium flux assay using human THP-1 cells, ligand MCP-1 (2.5 nM)", "setting": "[3]", "value": 0.92, "unit": "nM"}, {"measurement": "IC50 in calcium flux assay using human THP-1 cells, ligand MCP-3 (22 nM)", "setting": "[3]", "value": 0.29, "unit": "nM"}, {"measurement": "IC50 in calcium flux assay using human THP-1 cells, ligand MCP-5 (0.43 nM)", "setting": "[3]", "value": 0.89, "unit": "nM"}, {"measurement": "EC50", "setting": "[1]", "value": 0.36, "unit": "nM"}, {"measurement": "IC50 in chemotaxis assay using human THP-1 cells, ligand MCP-1 (3 nM)", "setting": "[4]", "value": 0.09, "unit": "nM"}, {"measurement": "IC50 in chemotaxis assay using human THP-1 cells, ligand MCP-2 (6.7 nM)", "setting": "[4]", "value": 0.06, "unit": "nM"}, {"measurement": "IC50 in chemotaxis assay using human THP-1 cells, ligand MCP-3 (1.1 nM)", "setting": "[4]", "value": 0.04, "unit": "nM"}, {"measurement": "IC50 in chemotaxis assay using human THP-1 cells, ligand MCP-4 (35 nM)", "setting": "[4]", "value": 0.05, "unit": "nM"}, {"measurement": "IC50 in chemotaxis assay using human THP-1 cells, ligand MCP-5 (0.65 nM)", "setting": "[4]", "value": 0.2, "unit": "nM"}]}
{"binder": "1H5 (antibody, V domains shown, tested as IgG) VH: EVQLVQSGAEVKKPGASVKVSCKASGYTFTSYYMHWVRQAPGQGLEWMGIINPSGGSTSYAHKFQGRVTMTRDTSTSTVYMELSSLRSEDTAVYYCARGGHVLRFLEWLGLEGPFDYWGQGTLVTVSS VL: LPVLTQPPSVSKGLRQTATLTCTGNSNNVGNQGAAWLQQHQGQPPKLLSYRNHNRPSGVSERFSPSRSGDTSSLTITGLQPEDEADYYCLAWDSSLRAFVFGTGTKLTVL", "values": [{"measurement": "IC50 on MCP-1 (3 nM) induced THP-1 cell migration", "setting": "[2]", "value": 0.109, "unit": "nM"}, {"measurement": "IC50 on MCP-2 (30 ng/ml) induced THP-1 cell migration", "setting": "[2]", "value": 1.9, "unit": "nM"}, {"measurement": "IC50 on MCP-3 (6 ng/ml) induced THP-1 cell migration", "setting": "[2]", "value": 2.6, "unit": "nM"}, {"measurement": "IC50 on MCP-4 (200 ng/ml) induced THP-1 cell migration", "setting": "[2]", "value": 1.4, "unit": "nM"}, {"measurement": "IC50 on MCP-5 (6 ng/ml) induced THP-1 cell migration", "setting": "[2]", "value": 0.349, "unit": "nM"}, {"measurement": "EC50", "setting": "[1]", "value": 1.3, "unit": "nM"}]}
{"binder": "D1-7/LO (antibody, V domains shown, tested as IgG. '/LO' not explained) VH: QVQLVQSGAEVKKPGASVKVSCKASGYTFTGYYMHWVRQAPGQGLEWMGWINPNSGVTKYAQKFQGRVTMTRDTSTSTVYMELSSLRSEDTAVYYCATGSGGGTMDVWGEGTLVTVSS VL: LPVLTQPPSVSKGLRQTATLTCTGNSNNVGNQGAAWLQQHQGQPPKLLSYRNHNRPSGVSERFSPSRSGDTSSLTITGLQPEDEADYYCLAWDSSLRAFVFGTGTKLTVL", "values": [{"measurement": "EC50", "setting": "[1]", "value": 0.08, "unit": "nM"}]}
{"binder": "1G11 (antibody, human IgG1, V domains shown) VH: EVQLVESGAEVKKPGASVKVSCKASGYIFTGYYIHWVRQAPGQGLEWMGWINPNNGVTKYAEKFQGRVTMTRDTSITTAYMDLSRLRSDDTAIYYCATGGFEYWGQGTLVTVSS VL: LPVLTQPPSVSKGLRQTATLTCTGNSNNVGNQGAAWLQQHQGQPPKLLSYRNHNRPSGVSERFSPSRSGDTSSLTITGLQPEDEADYYCLAWDSSLRAFVFGTGTKLTVL", "values": [{"measurement": "IC50 on MCP-1 (3 nM) induced THP-1 cell migration", "setting": "[2]", "value": 0.079, "unit": "nM"}, {"measurement": "IC50 on MCP-5 (6 ng/ml) induced THP-1 cell migration", "setting": "[2]", "value": 0.261, "unit": "nM"}, {"measurement": "IC50 in calcium flux assay using human THP-1 cells, ligand MCP-1 (2.5 nM)", "setting": "[3]", "value": 0.75, "unit": "nM"}, {"measurement": "IC50 in calcium flux assay using human THP-1 cells, ligand MCP-3 (22 nM)", "setting": "[3]", "value": 0.25, "unit": "nM"}, {"measurement": "IC50 in calcium flux assay using human THP-1 cells, ligand MCP-5 (0.43 nM)", "setting": "[3]", "value": 0.56, "unit": "nM"}, {"measurement": "EC50", "setting": "[1]", "value": 0.34, "unit": "nM"}, {"measurement": "IC50 in chemotaxis assay using human THP-1 cells, ligand MCP-1 (3 nM)", "setting": "[4]", "value": 0.08, "unit": "nM"}, {"measurement": "IC50 in chemotaxis assay using human THP-1 cells, ligand MCP-2 (6.7 nM)", "setting": "[4]", "value": 0.16, "unit": "nM"}, {"measurement": "IC50 in chemotaxis assay using human THP-1 cells, ligand MCP-3 (1.1 nM)", "setting": "[4]", "value": 0.07, "unit": "nM"}, {"measurement": "IC50 in chemotaxis assay using human THP-1 cells, ligand MCP-4 (35 nM)", "setting": "[4]", "value": 0.06, "unit": "nM"}, {"measurement": "IC50 in chemotaxis assay using human THP-1 cells, ligand MCP-5 (0.65 nM)", "setting": "[4]", "value": 0.26, "unit": "nM"}]}
{"binder": "1A2 (antibody, V domains shown, tested as IgG) VH: EVQLVQSGAEVKKPGASVKVSCKASGYTFTSYYMHWVRQAPGQGLEWMGIINPSGGSTSYAQKFQGRVTMTRDTSTSTVYMELSSLRSEDTAVYYCATGSGGGTMDVWGQGTTVTVSS VL: LPVLTQPPSVSKGLRQTATLTCTGNSNNVGNQGAAWLQQHQGQPPKLLSYRNHNRPSGVSERFSPSRSGDTSSLTITGLQPEDEADYYCLAWDSSLRAFVFGTGTKLTVL", "values": [{"measurement": "EC50", "setting": "[1]", "value": 2.9, "unit": "nM"}]}
{"binder": "D1-6/LO (antibody, V domains shown, tested as IgG. '/LO' not explained) VH: QVQLVQSGAEVKKPGASVKVSCKASGYTFTGYHMHWVRQAPGQGLEWMGIINPSSGSTKYAQKFQGRVTMTRDTSTSTVYMELSSLRSEDTAVYYCATGGFGYWGEGTLVTVSS VL: LPVLTQPPSVSKGLRQTATLTCTGNSNNVGNQGAAWLQQHQGQPPKLLSYRNHNRPSGVSERFSPSRSGDTSSLTITGLQPEDEADYYCLAWDSSLRAFVFGTGTKLTVL", "values": [{"measurement": "EC50", "setting": "[1]", "value": 3.5, "unit": "nM"}]}
